Source: US20250230251A1 (Bristol-Myers Squibb, published 2025)
Changes are numbered by the printed parent chain.

Columns and labels:
[1] = target: T1, human IL-18Rβ on cells (human, UniProt O95256 20-599); test: cell-based or functional assay
T1 sequence: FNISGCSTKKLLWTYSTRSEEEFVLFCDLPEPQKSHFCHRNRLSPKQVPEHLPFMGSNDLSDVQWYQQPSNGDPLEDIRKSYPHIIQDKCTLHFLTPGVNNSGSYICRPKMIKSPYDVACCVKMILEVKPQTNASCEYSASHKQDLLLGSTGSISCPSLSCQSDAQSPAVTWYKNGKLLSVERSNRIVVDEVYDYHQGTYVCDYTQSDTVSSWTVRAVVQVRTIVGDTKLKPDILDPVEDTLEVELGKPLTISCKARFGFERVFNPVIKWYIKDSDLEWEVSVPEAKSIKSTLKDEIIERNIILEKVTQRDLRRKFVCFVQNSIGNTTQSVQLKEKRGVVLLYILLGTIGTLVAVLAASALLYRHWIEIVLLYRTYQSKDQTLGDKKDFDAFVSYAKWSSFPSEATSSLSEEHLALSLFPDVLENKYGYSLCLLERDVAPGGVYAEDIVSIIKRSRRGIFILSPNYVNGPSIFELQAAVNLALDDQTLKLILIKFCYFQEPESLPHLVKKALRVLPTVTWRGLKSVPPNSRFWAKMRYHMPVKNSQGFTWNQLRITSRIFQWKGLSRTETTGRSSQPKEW

[2] = target: T2, huIL-18Rβ-HisAvi (human, UniProt O95256 20-356, biotinylated in the Octet blocking assay); test: SPR T200, mAb on anti-hFc, 37C, pH 6
T2 construct: Soluble analyte in all SPR runs; captured on streptavidin sensors in the Octet assay; also called human IL-18Rβ; human IL-18Rβ-Avi-His
T2 sequence: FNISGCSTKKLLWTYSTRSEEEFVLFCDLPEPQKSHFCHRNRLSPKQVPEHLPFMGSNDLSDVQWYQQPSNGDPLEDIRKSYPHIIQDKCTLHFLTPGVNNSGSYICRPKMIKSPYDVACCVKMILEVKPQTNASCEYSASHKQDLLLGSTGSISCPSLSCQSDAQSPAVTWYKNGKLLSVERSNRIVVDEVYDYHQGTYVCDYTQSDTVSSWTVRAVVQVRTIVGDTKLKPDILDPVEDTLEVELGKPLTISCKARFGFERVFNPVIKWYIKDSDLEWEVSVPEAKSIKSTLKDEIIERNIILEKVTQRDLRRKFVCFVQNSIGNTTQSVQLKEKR

[3] = target: T3, cyIL-18Rβ-HisAvi (cynomolgus monkey); test: SPR T200, mAb on anti-hFc, 37C, pH 6
T3 construct: Soluble analyte in SPR; also called cyno IL-18Rβ; cynomolgus monkey IL-18Rβ
T3 chain: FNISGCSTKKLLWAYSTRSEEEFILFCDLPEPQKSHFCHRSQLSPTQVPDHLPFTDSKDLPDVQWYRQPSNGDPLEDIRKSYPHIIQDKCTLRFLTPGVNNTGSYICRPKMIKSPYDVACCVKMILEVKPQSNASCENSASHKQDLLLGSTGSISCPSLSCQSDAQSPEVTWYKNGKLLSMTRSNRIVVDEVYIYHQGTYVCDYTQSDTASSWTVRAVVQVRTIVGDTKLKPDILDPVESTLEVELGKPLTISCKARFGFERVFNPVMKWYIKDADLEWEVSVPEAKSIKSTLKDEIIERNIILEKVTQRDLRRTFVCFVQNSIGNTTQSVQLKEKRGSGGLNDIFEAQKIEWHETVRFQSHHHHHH

[4] = target: T2, huIL-18Rβ-HisAvi; test: SPR T200, mAb on anti-hFc, 37C, pH 7.4
[5] = target: T3, cyIL-18Rβ-HisAvi; test: SPR T200, mAb on anti-hFc, 37C, pH 7.4
[6] = target: T2, huIL-18Rβ-HisAvi; test: SPR T200, pH 7; sample T0
[7] = target: T2, huIL-18Rβ-HisAvi; test: SPR T200, pH 7; sample 4 w 4C
[8] = target: T2, huIL-18Rβ-HisAvi; test: SPR T200, pH 7; sample 2 w 40C
[9] = target: T2, huIL-18Rβ-HisAvi; test: SPR T200, pH 7; sample 4 w 40C

B1: P20-V3 (antibody, human IgG1, kappa, V domains shown)
VH: QVQLQESGPGLVKPSETLSLTCTVSGGSINNYYWSWIRQPPGKGLEWIGYIFYSGTTNYNPSLKSRVTISVDTSKNQFSLKLSSVTAADTAVYYCARDVGIAARNSYYYVMDVWGQGTTVTVSS
VL: AIQLTQSPSSLSASVGDRVTITCRASQGISSALAWYQQKPGKAPKFLIYGASSLESGVPSRFSGSGSGTDFTLTISSLQPEDFATYYCQQFNSYPITFGQGTRLEIKR
notes: Variant of P20
Average IC50, LPS+IL-12 dependent IFNg production, human whole blood [1]: 1.52 nM
Kd [2]: 0.36 nM
koff [2]: 0.00014 s⁻¹
kon [2]: 390000 M⁻¹ s⁻¹
Kd [3]: 2.4 nM
koff [3]: 0.00042 s⁻¹
kon [3]: 180000 M⁻¹ s⁻¹
Kd [4]: 0.72 nM
koff [4]: 0.00019 s⁻¹
kon [4]: 270000 M⁻¹ s⁻¹
Kd [5]: 1.5 nM
koff [5]: 0.0003 s⁻¹
kon [5]: 200000 M⁻¹ s⁻¹

B2: P21-V1 (antibody, human IgG1, kappa, V domains shown)
VH: QVQLQESGPGLVKPSETLSLTCTVSGGSISNYYWTWIRQPPGKGLEWIGYISDSGSTNYNPSLKSRVTISVDTSKNQFSLKLSSVTAADTAVYYCARETIVVRGFYFYVMDVWGQGTTVTVSS
VL: B1 VL with F46L, G50E, S53N, L54W, I96W, R103K, L104V
notes: Variant of P21
Average IC50, LPS+IL-12 dependent IFNg production, human whole blood [1]: 1.23 nM
Kd [6]: 0.26 nM
koff [6]: 7.2e-05 s⁻¹
kon [6]: 270000 M⁻¹ s⁻¹
Kd [7]: 0.24 nM
koff [7]: 6.5e-05 s⁻¹
kon [7]: 270000 M⁻¹ s⁻¹
Kd [8]: 0.18 nM
koff [8]: 4.9e-05 s⁻¹
kon [8]: 270000 M⁻¹ s⁻¹
Kd [9]: 0.51 nM
koff [9]: 0.00014 s⁻¹
kon [9]: 280000 M⁻¹ s⁻¹
Kd [2]: 0.37 nM
koff [2]: 0.00017 s⁻¹
kon [2]: 460000 M⁻¹ s⁻¹
Kd [3]: 13 nM
koff [3]: 0.0031 s⁻¹
kon [3]: 250000 M⁻¹ s⁻¹
Kd [4]: 0.63 nM
koff [4]: 0.00022 s⁻¹
kon [4]: 360000 M⁻¹ s⁻¹
Kd [5]: 8.7 nM
koff [5]: 0.0047 s⁻¹
kon [5]: 540000 M⁻¹ s⁻¹
